Laboratory results taken from the DeepSol protein solubility set.

Assay: soluble on expression in E. coli; label from the status in PepcDB or PDB records

Sequence	soluble on expression in E. coli
MGSDKIHHHHHHMDVANKIKVIDRLRLGFAVLVAKSVTFLVRSLRLGAASVLPGSIARRIEPRLLQLLSQQVQNGVIIIAGTNGKTTTALLLCTILENKGYRVCHNSTGANLENGLMTALLDSTNLVGTLDVDYAILEVDENIVPRVLKPLQPRIILCLNLFRDQLDRYGEVDTISKRWTKVISTLPRETVVIPNADDPTLSLLGQQLPQKVLFFGLNEPEHYLEAIPHAVDSIYCPQCGHSLDYQGVYLSHLGDFTCPSCGFTKSQPTLASREWSQILVGLYNKYNTLAATTAAIELGVDETTIRDTINNFQAAFGRAEDLVIDGKRVRILLSKNPVGTNETIRVVTQSTDKTTLLVLNDRTPDGTDVSWIWDVDTEKLVERGGTLVVSGDRVYDMALRLRYSEKSAQSNLNLIVEADLRQAIATALEHTPATETLHILPTYSAMLEVREVLTGRKIL	not soluble
MEYHMGNTMTKAIYDKFKSATPYGNKVATGPTPTEAVDITVSVGGFKVGDQNYPINPKITFTNNTGQAIPGGTEFQFDIPVSAPDNAKDQSGGGLKVIASGHTRANNIGGLDGVMHRVSFSLPAWKDLPAGGTYELDMVYYLPISGPANYSVISGGKEFAFKFEQPDLPIGDLNALEHHHHHH	soluble
MVNSDIREQLRPFFEPKAVAIIGATNKKGKVGNVIFENFKKNKEKGIFKGNIYPVNPKLDEIEGYKVYHDVSELPDDTDLAVIAIPAPAVPETMRKIGEKGIKSVIIITGGFGELGEEGKRMEQEILEIARANGIRVIGPNCVGVYVPDTGVDTVFLPDEKMDRPPSGPIAFISQSGAFAAAMLDWAAMAGIGIGKMVSYGNKIDVDDADLMEYFAHDDEIKVMTFYIEGVKDGRKFMETAKRVTKIKPIIALKSGRTEYGAKAASSHTGSLAGQDVIYDAVFKQTGIIRAEDFEHMFDLAKAFAKCKLPKGDRIGIITDGGGAGVMASDAVAKFGLKLAELSEETIKFLRERFPPHAVVGNPTDVVGDTDAERYRLALEAFTKDPNVDAILLIVLFQVPLLDEEEVINIITDYAKKSDKPIVVVSMGGYKTDKYARMLEERGIPVYPTPERGVRALAGLVRYAKYIRGNGE	soluble
MGSDKIHHHHHHMLGASQPYDLGPGIRRGSRGKGGAMTQIPNHDPLSDWGLPGWIYTSERFFKEEQDKVFRPSWQIVCHLNDIPKAGDFHTFDFIGESLVVVRSKDGGVRAFANVCRHRGARLLDGPVGRCGGRIVCPYHAWTYDLEGRLIGVPMRDDYPALDMAKEGLATIEVEVWRGFVFVRLEGDGPSVATMMAPYEDEVAHYRFEELQPFGRVTLRPRAVNWKNISDNYSDGLHIPVAHPGLTRLFGKGYGVEAEAYVDKMWGQLIDEPSESPSERLYQDILPDVAHLPGDRKRLWTYFKLWPNFAFDIYPDQVDFMQFIPISAEQTMIREIAYALPDDRREMKAARYLNWRINRQVNTEDTELVARVQQGMASRTFTAGPLATSEVSLRSFGRKMRALIPESRMPRPPEGW	not soluble
MSHGHSHDGAPCGGHHGDDGAGGSRPSVNDVQALVDQLRLAGVDVSNMPNIPTAPRDMDEARSKSFQFWSTQPVPQMDETVPADVNCAIEENIALDKVRAEPFSLPAGFRWSNVDLSDEEQLNELYNLLTRNYVEDDDSMFRFDYSADFLKWALQVPGFRPEWHCGVRADSNNRLLAFIGAVPQTVRVYDKTVNMVEINFLCVHKNLRSRRVAPVLIREITRRVNVTGIFQAAFTAGIVIPKPVSVCRYYHRSLNPRKLIDVRFSHLSAKMTMARTIKLYKLPEETATRNLREMKSTDVPQVFKLLTTSLKQYSLAPVYNSEEELAHALVPKKGVVYSYVAENQNGKITDFVSFYSLPSTVMGHTTHKTIYAAYLYYYVAGSVTPKQLINDSLILANREKFDVFNALDLMHNEKIFSDLKFGKGDGNLQYYLYNWKCADMKPSQIGLVLQ	not soluble
MALIEKNTQFDADKLTANVVGIAADVGKHDSGMHQHHKGQLLYAPQGCMTFALNDSICILPPTKAVWIPPHTPHRAVMTNVVAYRSVYFDCDKFSCPKSIVMIEVNDLLKALINKMALWEWDIEQTKTNATTILFWEEFYQAKQFELTLPLPSDRRLASFRNAMTKDGFIAPD	not soluble
MGSDKIHHHHHHSTVAIALDCKGLGSPIPGTAPLCKDLTLMATGNKPSAAFVKNTRAAYGSVLQGYHNQVKPHVAPVQAAVSKKWKQFAKSDVGGKVEKIAMNIHAWIVDKWVKIQRFVQQTWNNVAAWWKKNGQKQFGPALEGFVLGVKMVFQVVADALRSVGALLVHFFARAKTFFVAFADGGFNAAMNTLNH	not soluble
